Results: publication PMC2888265
Where two headings read alike, the source gives them in different places.

Assays:
Test in all cases: crystal structure
[1] = target: Teg12 (uncultured bacterium (DNA extracted directly from desert soil))
[2] = target: Teg12 (uncultured bacterium (DNA extracted directly from desert soil)); remark: listed apart in the source
[3] = target: Teg12 (uncultured bacterium (DNA extracted directly from desert soil)); remark: listed apart in the source

stoichiometry N [1]: 2
stoichiometry N [2]: 2
stoichiometry N [3]: 2
Substance: Teg12 (enzyme)
